Reference: US20030059769A1

Molecular target: LS-Rg, chimeric protein of the extracellular domain of human L-selectin joined to the Fc domain of a human G2 immunoglobulin (human) (UniProt P14151)
Assay: competition of unlabeled antibody against radiolabeled 2'-F RNA ligand LF1807 on purified LS-Rg

Sequence of LS-Rg, chimeric protein of the extracellular domain of human L-selectin joined to the Fc domain of a human G2 immunoglobulin (human) (P14151 39-332, stated change not applied): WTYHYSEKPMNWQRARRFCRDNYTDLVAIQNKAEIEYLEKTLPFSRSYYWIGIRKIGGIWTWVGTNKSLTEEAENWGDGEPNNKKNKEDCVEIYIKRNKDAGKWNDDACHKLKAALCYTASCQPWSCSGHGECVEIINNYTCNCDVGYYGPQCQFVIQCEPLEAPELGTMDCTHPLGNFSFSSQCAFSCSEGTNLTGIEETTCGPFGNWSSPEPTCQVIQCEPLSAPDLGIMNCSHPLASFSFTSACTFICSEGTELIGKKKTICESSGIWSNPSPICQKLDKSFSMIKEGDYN

## DREG-56, L-selectin specific blocking monoclonal antibody
  concentration for complete inhibition: 300 nM
